The record followed here is article PMC11869522, “Competitive displacement of lipoprotein lipase from heparan sulfate is orchestrated by a disordered acidic cluster in GPIHBP1” (Journal of Lipid Research, 2025).

The subject of test [1] is hLPL bound to immobilized heparan sulfate. As to the kind of experiment: GPIHBP1-mediated extraction of LPL from HSPGs (SPR, immobilized heparin dp4 fragments). Type of test: binding, human. From the text:
To mimic electrostatic conditions found in the sub-endothelial spaces where surface-bound heparan-sulfate proteoglycans (HSPGs) are abundant, we designed a surrogate sensor surface using a streptavidin-coated CM5 sensor chip to capture high densities of biotinylated synthetic heparin dp4 fragments ([28], [29]). The reference surface was loaded with a neutral and non-sulfated fragment (M09 S00 from Iduron), while the active surface was loaded with a negatively charged fragment (M09 S08a from Iduron) containing N- and O-6-linked sulfations on each of the […] glucosamine residues in the DP4 fragment. Only the highly sulfated oligosaccharide bound LPL, and those interactions were transient with high off-rates. Despite the very transient nature of this binding, we created a stable reservoir of hLPL on the sensor surface by combining the fast kinetics of polyelectrolyte interactions with severe mass transport limitation—the latter phenomenon impedes LPL escape from the surface due to the fast rebinding that is favored by the high densities of immobilized heparin fragments (300 fmol/mm^2). For each experiment, 12.5 nM hLPL was loaded for 100 s at a flow rate of 20 μl/min in 10 mM Hepes (pH 7.4), 150 mM NaCl, 4 mM CaCl2, 10% (vol/vol) glycerol, 0.05% (vol/vol) surfactant P20, 1 mg/ml defatted BSA, […], and 0.05% (wt/vol) NaN3.
To compare the ability of GPIHBP1^1–131 and its charge variants to bind and extract hLPL from this dynamic reservoir, we injected twofold serial dilutions of 1.25–200 nM GPIHBP1^1–131; 1.25–200 nM GPIHBP1^Cluster1-neutral; GPIHBP1^Cluster2-neutral; 1.25–200 nM GPIHBP1^34–131; 0.1–1.6 μM GPIHBP1^1–33 with Tyr^18–SO4; or 1.25–200 nM GPIHBP1^34–131 in the presence of 1 μM sulfated GPIHBP1^1–33 for 250 s at 20 μl/min in 10 mM Hepes (pH 7.4), 150 mM NaCl, 4 mM CaCl2, 10% (vol/vol) glycerol, 0.05% (vol/vol) surfactant P20, 0.2 mg/ml fatty acid-free BSA, and 0.05% (wt/vol) NaN3. At the end of each cycle, two consecutive injections of 10 μl 3 M guanidinium chloride regenerated the chip.
GPIHBP1’s ability to displace LPL from its HSPG-bound state in the sub-endothelial spaces is essential for the trans-endothelial trafficking of LPL to the luminal surface of capillary cells ([29]). The importance of the acidic tail in this process is supported by solid evidence from surrogate in vitro models and in vivo studies in gene-edited mice ([28], [29]). It was therefore important to determine the relative impact of the two charge-clusters in GPIHBP1 on their ability to disrupt LPL•HSPG interactions. To gain this insight, we measured the ability of different GPIHBP1 charge variants to displace hLPL from a SPR sensor chip surface coupled with a high density of immobilized small heparin-like fragments ([28]). […]

Another test has as its system bLPL. The test is described as follows: Lipase activity assay, protection against ANGPTL4-catalyzed LPL inactivation. Type of test: biochemical, bovine. To be noted: 30 nM bLPL, 30 nM ANGPTL4, 300 nM GPIHBP1 variant, room temperature up to 60 min; Intralipid, NEFA; triplicates.

B1: GPIHBP1^Cluster2-neutral: GPIHBP1 mutant with all Glu/Asp replaced by Gln/Asn at residues 19–30 (protein)
chain: QTQQEEEEEDEDHGPDDYNQQNQNQVQQQQTNRLPGGGSRVLLRCYTCKSLPRDERCNLTQNCSHGQTCTTLIAHGNTESGLLTTHSTWCTDSCQPITKTVEGTQVTMTCCQSSLCNVPPWQSSRVQDPTG
modifications: Tyr18 sulfation absent; one bi-antennary N-linked glycosylation; left off: uPAR domain III, N-terminal, cleaved
In the case of B1, in test [1] (12.5–200 nM GPIHBP1 proteins, 0.1–1.6 μM sulfated GPIHBP1^1–33, or GPIHBP1^34–131 with 1 μM sulfated GPIHBP1^1–33), the “competitive displacement of HSPG-bound hLPL (in words)” value is on record as “neither dislodged any LPL from the surface”.

B2: GPIHBP1^Cluster1-neutral: GPIHBP1 mutant with all Glu/Asp replaced by Gln/Asn at residues 1–17 (protein)
chain: QTQQQQQQQNQNHGPNNYDEEDEDEVEEEETNRLPGGGSRVLLRCYTCKSLPRDERCNLTQNCSHGQTCTTLIAHGNTESGLLTTHSTWCTDSCQPITKTVEGTQVTMTCCQSSLCNVPPWQSSRVQDPTG
modifications: Tyr18 sulfation present in less than 40%; one bi-antennary N-linked glycosylation; left off: uPAR domain III, N-terminal, cleaved
Turning to B2, the “reduction in hLPL levels on the sensor surface after GPIHBP1 injections (ΔLPL, displaced LPL)” value in test [1] (serial twofold dilutions 12.5–200 nM, 250 s at 20 μl/min, pH 7.4, mean ± SD, n = 3) worked out at 35%. The “protection of bLPL from ANGPTL4-mediated inactivation (time-dependent decay of LPL activity)” value in the test on bLPL is recorded as “greater efficacy than GPIHBP1^Cluster2-neutral”.
